In US20200024360A1 (Janssen / Centocor, published 2020):

T1: chimpanzee PSMA, full length (Pan troglodytes, UniProt Q04609 1-750 (human entry))
T1 construct: On transfected HEK293F cells; also called chimp PSMA; H2Q3K5_PANTR
T1 chain: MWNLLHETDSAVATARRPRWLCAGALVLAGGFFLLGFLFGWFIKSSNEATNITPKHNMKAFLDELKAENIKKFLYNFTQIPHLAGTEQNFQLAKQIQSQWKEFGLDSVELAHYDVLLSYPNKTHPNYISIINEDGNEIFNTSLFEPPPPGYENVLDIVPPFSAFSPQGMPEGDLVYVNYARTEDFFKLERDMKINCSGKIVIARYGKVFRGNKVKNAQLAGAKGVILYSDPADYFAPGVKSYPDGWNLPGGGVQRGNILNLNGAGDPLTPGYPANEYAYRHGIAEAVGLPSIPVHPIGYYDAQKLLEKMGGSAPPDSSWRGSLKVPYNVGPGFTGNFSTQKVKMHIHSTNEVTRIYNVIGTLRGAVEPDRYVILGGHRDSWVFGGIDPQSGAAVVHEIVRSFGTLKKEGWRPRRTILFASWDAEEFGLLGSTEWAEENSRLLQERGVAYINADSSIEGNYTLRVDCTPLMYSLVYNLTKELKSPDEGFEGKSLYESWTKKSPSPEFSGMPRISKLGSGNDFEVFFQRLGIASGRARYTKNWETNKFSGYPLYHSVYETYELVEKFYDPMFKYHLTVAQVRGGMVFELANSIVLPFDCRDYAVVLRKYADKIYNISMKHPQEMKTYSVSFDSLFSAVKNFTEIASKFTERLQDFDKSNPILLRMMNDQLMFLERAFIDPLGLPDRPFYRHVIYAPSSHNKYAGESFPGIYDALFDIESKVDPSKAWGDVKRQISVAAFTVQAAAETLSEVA

T2: Cynomolgous monkey PSMA, full length (Macaca fascicularis, UniProt Q04609 1-750 (human entry))
T2 construct: On transfected HEK293F cells; also called cyno PSMA; EHH56646.1
T2 chain: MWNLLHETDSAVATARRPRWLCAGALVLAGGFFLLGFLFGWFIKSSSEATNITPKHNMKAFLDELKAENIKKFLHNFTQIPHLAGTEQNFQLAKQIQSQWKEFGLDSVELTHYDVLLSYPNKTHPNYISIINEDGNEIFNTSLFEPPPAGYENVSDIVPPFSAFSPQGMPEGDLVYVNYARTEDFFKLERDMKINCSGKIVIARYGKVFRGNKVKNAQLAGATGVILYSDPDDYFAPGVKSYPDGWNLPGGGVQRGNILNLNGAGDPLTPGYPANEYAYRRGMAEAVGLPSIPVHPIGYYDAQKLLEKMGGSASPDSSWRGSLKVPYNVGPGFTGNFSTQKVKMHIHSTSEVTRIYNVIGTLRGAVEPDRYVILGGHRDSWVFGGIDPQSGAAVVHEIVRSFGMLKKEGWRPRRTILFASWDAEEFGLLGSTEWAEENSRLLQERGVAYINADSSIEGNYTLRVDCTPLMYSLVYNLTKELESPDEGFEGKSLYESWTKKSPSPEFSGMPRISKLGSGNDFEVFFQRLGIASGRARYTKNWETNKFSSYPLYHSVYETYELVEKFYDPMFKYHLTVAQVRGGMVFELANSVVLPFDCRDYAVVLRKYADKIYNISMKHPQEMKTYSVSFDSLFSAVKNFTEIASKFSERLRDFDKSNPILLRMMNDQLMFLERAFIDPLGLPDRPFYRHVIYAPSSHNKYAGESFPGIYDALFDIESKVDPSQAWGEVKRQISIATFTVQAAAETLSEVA


Legend:
[1] = target: T1, chimpanzee PSMA, full length; test: FACS, whole cell binding, chimp PSMA HEK
Experimental: (§1) PSMA×CD3 bispecific antibodies were tested for binding to PSMA positive cell lines LNCAP, human PSMA-HEK, Chimpanzee-PSMA-HEK and Cynomolgous monkey PSMA-HEK. To assess the binding capabilities of the PSMA bispecific antibodies, the cell-binding assay was utilized (described previously). Briefly, PSMA expressing tumor cells are bound by bispecific antibodies at known concentrations and the bound antibody is detected by an anti-human kappa light chain PE conjugated detection reagent (Invitrogen). The Mean Fluorescents Intensity (MFI) is the measure of bound bispecific antibody. The MFI is converted to a relative EC₅₀. EC₅₀ is a commonly used dose-response curve, where the half maximal effective concentration or the EC₅₀ point is defined as the inflection point of the curve. EC₅₀ s were determined by measuring cell bound bispecific and known concentrations. […] The dose response curves were then diluted down to that of background or no bispecific binding. The inflection point of this curve reflects the EC₅₀ point. The calculated EC₅₀ is determined by taking the ug/ml amount of bispecific antibody at the EC₅₀ point and converting it to a molarity value based on the MW of the bispecific antibody. Bispecific antibodies were normalized for protein concentration and then incubated with the same number of cells expressing either human or cyno PSMA. The MFI at each concentration was collected by flow cytometry and plotted as a function of concentration. Data was transformed via log 10 and then plotted. Nonlinear regression of binding curves was done to determine EC₅₀ s. These relative values were used for ranking PSMA binding to target cells.

[2] = target: T2, Cynomolgous monkey PSMA, full length; test: FACS, whole cell binding, cyno PSMA HEK
Experimental: as §1

[3] = target: T3, human PSMA (prostate specific membrane antigen), full length (human, UniProt Q04609 1-750); test: FACS, whole cell binding, LNCaP; calculated EC50
T3 construct: On LNCaP or C4-2B cells (endogenous) or transduced HEK293F cells; also called FOLH1_HUMAN; hPSMA
Experimental: as §1

[4] = target: T1, chimpanzee PSMA, full length; test: FACS, whole cell binding, chimp PSMA HEK; calculated EC50
Experimental: as §1

Binder | EC50 [1] | EC50 [2] | EC50 [3] | EC50 [4]
PS3B27 (bispecific antibody, human IgG4 S228P, kappa, lambda, F234A L235A, IgG4 PAA; PSMA arm chains first, then CD3 arm (F405L, R409K); also called PSMB127 x CD3B219; PS2B27) heavy 1: not shown light 1: not shown heavy 2: EVQLVESGGGLVQPGGSLRLSCAASGFTFNTYAMNWVRQAPGKGLEWVARIRSKYNNYATYYAASVKGRFTISRDDSKNSLYLQMNSLKTEDTAVYYCARHGNFGNSYVSWFAYWGQGTLVTVSSASTKGPSVFPLAPCSRSTSESTAALGCLVKDYFPEPVTVSWNSGALTSGVHTFPAVLQSSGLYSLSSVVTVPSSSLGTKTYTCNVDHKPSNTKVDKRVESKYGPPCPPCPAPEAAGGPSVFLFPPKPKDTLMISRTPEVTCVVVDVSQEDPEVQFNWYVDGVEVHNAKTKPREEQFNSTYRVVSVLTVLHQDWLNGKEYKCKVSNKGLPSSIEKTISKAKGQPREPQVYTLPPSQEEMTKNQVSLTCLVKGFYPSDIAVEWESNGQPENNYKTTPPVLDSDGSFLLYSKLTVDKSRWQEGNVFSCSVMHEALHNHYTQKSLSLSLGK light 2: QTVVTQEPSLTVSPGGTVTLTCRSSTGAVTTSNYANWVQQKPGQAPRGLIGGTNKRAPGTPARFSGSLLGGKAALTLSGVQPEDEAEYYCALWYSNLWVFGGGTKLTVLGQPKAAPSVTLFPPSSEELQANKATLVCLISDFYPGAVTVAWKADSSPVKAGVETTTPSKQSNNKYAASSYLSLTPEQWKSHRSYSCQVTHEGSTVEKTVAPTECS | 3.24 µg/mL | 1.4 µg/mL | 14.6 nM | 22.8 nM
PS3B24 (bispecific antibody, human IgG4 S228P, kappa, lambda, F234A L235A, IgG4 PAA; PSMA arm chains first, then CD3 arm (F405L, R409K); also called PSMB124 x CD3B219) heavy 1: not shown light 1: not shown heavy 2: EVQLVESGGGLVQPGGSLRLSCAASGFTFNTYAMNWVRQAPGKGLEWVARIRSKYNNYATYYAASVKGRFTISRDDSKNSLYLQMNSLKTEDTAVYYCARHGNFGNSYVSWFAYWGQGTLVTVSSASTKGPSVFPLAPCSRSTSESTAALGCLVKDYFPEPVTVSWNSGALTSGVHTFPAVLQSSGLYSLSSVVTVPSSSLGTKTYTCNVDHKPSNTKVDKRVESKYGPPCPPCPAPEAAGGPSVFLFPPKPKDTLMISRTPEVTCVVVDVSQEDPEVQFNWYVDGVEVHNAKTKPREEQFNSTYRVVSVLTVLHQDWLNGKEYKCKVSNKGLPSSIEKTISKAKGQPREPQVYTLPPSQEEMTKNQVSLTCLVKGFYPSDIAVEWESNGQPENNYKTTPPVLDSDGSFLLYSKLTVDKSRWQEGNVFSCSVMHEALHNHYTQKSLSLSLGK light 2: QTVVTQEPSLTVSPGGTVTLTCRSSTGAVTTSNYANWVQQKPGQAPRGLIGGTNKRAPGTPARFSGSLLGGKAALTLSGVQPEDEAEYYCALWYSNLWVFGGGTKLTVLGQPKAAPSVTLFPPSSEELQANKATLVCLISDFYPGAVTVAWKADSSPVKAGVETTTPSKQSNNKYAASSYLSLTPEQWKSHRSYSCQVTHEGSTVEKTVAPTECS | 1.1 µg/mL | 18.2 µg/mL | – | 7.75 nM
PS3B22 (bispecific antibody, human IgG4 S228P, kappa, lambda, F234A L235A, IgG4 PAA; PSMA arm chains first, then CD3 arm (F405L, R409K); also called PSMB122 x CD3B219; PSB22) heavy 1: not shown light 1: DIQMTQSPSSLSASVGDRVTITCRASQSIDRWLNWYQQKPGKAPKLLIYAASSLQSGVPSRFSGSGSGTDFTLTISSLQPEDFATYYCQQSPRYPLTFGQGTKVEIKRTVAAPSVFIFPPSDEQLKSGTASVVCLLNNFYPREAKVQWKVDNALQSGNSQESVTEQDSKDSTYSLSSTLTLSKADYEKHKVYACEVTHQGLSSPVTKSFNRGEC heavy 2: EVQLVESGGGLVQPGGSLRLSCAASGFTFNTYAMNWVRQAPGKGLEWVARIRSKYNNYATYYAASVKGRFTISRDDSKNSLYLQMNSLKTEDTAVYYCARHGNFGNSYVSWFAYWGQGTLVTVSSASTKGPSVFPLAPCSRSTSESTAALGCLVKDYFPEPVTVSWNSGALTSGVHTFPAVLQSSGLYSLSSVVTVPSSSLGTKTYTCNVDHKPSNTKVDKRVESKYGPPCPPCPAPEAAGGPSVFLFPPKPKDTLMISRTPEVTCVVVDVSQEDPEVQFNWYVDGVEVHNAKTKPREEQFNSTYRVVSVLTVLHQDWLNGKEYKCKVSNKGLPSSIEKTISKAKGQPREPQVYTLPPSQEEMTKNQVSLTCLVKGFYPSDIAVEWESNGQPENNYKTTPPVLDSDGSFLLYSKLTVDKSRWQEGNVFSCSVMHEALHNHYTQKSLSLSLGK light 2: QTVVTQEPSLTVSPGGTVTLTCRSSTGAVTTSNYANWVQQKPGQAPRGLIGGTNKRAPGTPARFSGSLLGGKAALTLSGVQPEDEAEYYCALWYSNLWVFGGGTKLTVLGQPKAAPSVTLFPPSSEELQANKATLVCLISDFYPGAVTVAWKADSSPVKAGVETTTPSKQSNNKYAASSYLSLTPEQWKSHRSYSCQVTHEGSTVEKTVAPTECS | 3.02 µg/mL | 1.14 µg/mL | 18.3 nM | 21.2 nM
PS3B19 (bispecific antibody, human IgG4 S228P, kappa, lambda, F234A L235A, IgG4 PAA; PSMA arm chains first, then CD3 arm (F405L, R409K); also called PSMB119 x CD3B219) heavy 1: not shown light 1: not shown heavy 2: EVQLVESGGGLVQPGGSLRLSCAASGFTFNTYAMNWVRQAPGKGLEWVARIRSKYNNYATYYAASVKGRFTISRDDSKNSLYLQMNSLKTEDTAVYYCARHGNFGNSYVSWFAYWGQGTLVTVSSASTKGPSVFPLAPCSRSTSESTAALGCLVKDYFPEPVTVSWNSGALTSGVHTFPAVLQSSGLYSLSSVVTVPSSSLGTKTYTCNVDHKPSNTKVDKRVESKYGPPCPPCPAPEAAGGPSVFLFPPKPKDTLMISRTPEVTCVVVDVSQEDPEVQFNWYVDGVEVHNAKTKPREEQFNSTYRVVSVLTVLHQDWLNGKEYKCKVSNKGLPSSIEKTISKAKGQPREPQVYTLPPSQEEMTKNQVSLTCLVKGFYPSDIAVEWESNGQPENNYKTTPPVLDSDGSFLLYSKLTVDKSRWQEGNVFSCSVMHEALHNHYTQKSLSLSLGK light 2: QTVVTQEPSLTVSPGGTVTLTCRSSTGAVTTSNYANWVQQKPGQAPRGLIGGTNKRAPGTPARFSGSLLGGKAALTLSGVQPEDEAEYYCALWYSNLWVFGGGTKLTVLGQPKAAPSVTLFPPSSEELQANKATLVCLISDFYPGAVTVAWKADSSPVKAGVETTTPSKQSNNKYAASSYLSLTPEQWKSHRSYSCQVTHEGSTVEKTVAPTECS | 5.1 µg/mL | 1.76 µg/mL | – | 35.9 nM
PS3B23 (bispecific antibody, human IgG4 S228P, kappa, lambda, F234A L235A, IgG4 PAA; PSMA arm chains first, then CD3 arm (F405L, R409K); also called PSMB123 x CD3B219) heavy 1: not shown light 1: not shown heavy 2: EVQLVESGGGLVQPGGSLRLSCAASGFTFNTYAMNWVRQAPGKGLEWVARIRSKYNNYATYYAASVKGRFTISRDDSKNSLYLQMNSLKTEDTAVYYCARHGNFGNSYVSWFAYWGQGTLVTVSSASTKGPSVFPLAPCSRSTSESTAALGCLVKDYFPEPVTVSWNSGALTSGVHTFPAVLQSSGLYSLSSVVTVPSSSLGTKTYTCNVDHKPSNTKVDKRVESKYGPPCPPCPAPEAAGGPSVFLFPPKPKDTLMISRTPEVTCVVVDVSQEDPEVQFNWYVDGVEVHNAKTKPREEQFNSTYRVVSVLTVLHQDWLNGKEYKCKVSNKGLPSSIEKTISKAKGQPREPQVYTLPPSQEEMTKNQVSLTCLVKGFYPSDIAVEWESNGQPENNYKTTPPVLDSDGSFLLYSKLTVDKSRWQEGNVFSCSVMHEALHNHYTQKSLSLSLGK light 2: QTVVTQEPSLTVSPGGTVTLTCRSSTGAVTTSNYANWVQQKPGQAPRGLIGGTNKRAPGTPARFSGSLLGGKAALTLSGVQPEDEAEYYCALWYSNLWVFGGGTKLTVLGQPKAAPSVTLFPPSSEELQANKATLVCLISDFYPGAVTVAWKADSSPVKAGVETTTPSKQSNNKYAASSYLSLTPEQWKSHRSYSCQVTHEGSTVEKTVAPTECS | 0.88 µg/mL | 3.74 µg/mL | – | 6.18 nM
